The record followed here is US20260199458A1 (INCENDIA THERAPEUTICS, published 2026).

The target in test [1] is T1, Human DDR1 extracellular domain (human, UniProt Q08345 21-417).
T1 construct: extracellular domain
Briefly: Biacore, DDR1 extracellular domain. On the procedure: (§1) First, 9H-1 was tested for its affinity to DDR1 protein from human, mouse, rat, and cynomolgus monkey.
(In general: Surface plasmon resonance follows binding to a sensor surface in real time, without labels.)

The target of test [2] is T2, Mouse DDR1 extracellular domain (mouse, UniProt Q03146 22-415).
T2 construct: extracellular domain
T2 sequence (looked up): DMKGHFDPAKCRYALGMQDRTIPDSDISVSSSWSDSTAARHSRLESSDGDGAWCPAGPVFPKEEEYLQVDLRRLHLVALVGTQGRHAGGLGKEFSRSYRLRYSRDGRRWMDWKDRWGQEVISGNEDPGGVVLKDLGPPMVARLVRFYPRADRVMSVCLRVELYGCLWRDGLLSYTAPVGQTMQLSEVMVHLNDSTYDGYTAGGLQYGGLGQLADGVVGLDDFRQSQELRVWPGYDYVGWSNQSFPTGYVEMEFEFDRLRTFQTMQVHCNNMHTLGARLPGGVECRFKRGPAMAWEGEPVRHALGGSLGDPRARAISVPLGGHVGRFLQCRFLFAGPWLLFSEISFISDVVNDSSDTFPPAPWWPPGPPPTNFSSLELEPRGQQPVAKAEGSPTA
Briefly: Biacore, DDR1 extracellular domain. On the procedure: as §1

Test [3] deals with T3, Rat DDR1 extracellular domain (rat, UniProt Q63474 22-414).
T3 construct: extracellular domain
T3 sequence (looked up): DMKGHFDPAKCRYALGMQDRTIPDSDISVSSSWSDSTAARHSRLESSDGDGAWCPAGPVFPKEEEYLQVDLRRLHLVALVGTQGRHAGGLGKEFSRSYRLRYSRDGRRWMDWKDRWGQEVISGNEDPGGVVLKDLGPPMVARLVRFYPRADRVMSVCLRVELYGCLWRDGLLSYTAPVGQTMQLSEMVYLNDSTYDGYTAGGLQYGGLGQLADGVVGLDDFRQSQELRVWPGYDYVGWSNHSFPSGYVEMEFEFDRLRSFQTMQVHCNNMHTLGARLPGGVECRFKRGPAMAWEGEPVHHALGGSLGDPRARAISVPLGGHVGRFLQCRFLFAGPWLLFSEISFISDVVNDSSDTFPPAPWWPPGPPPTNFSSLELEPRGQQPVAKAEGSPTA
Description: Biacore, DDR1 extracellular domain. On the procedure: as §1

Test [4] concerns the target T4, Cynomolgus monkey DDR1 extracellular domain (cynomolgus monkey, UniProt A0A2K5V739 47-443).
T4 construct: extracellular domain; also called Cyno DDR1
T4 sequence: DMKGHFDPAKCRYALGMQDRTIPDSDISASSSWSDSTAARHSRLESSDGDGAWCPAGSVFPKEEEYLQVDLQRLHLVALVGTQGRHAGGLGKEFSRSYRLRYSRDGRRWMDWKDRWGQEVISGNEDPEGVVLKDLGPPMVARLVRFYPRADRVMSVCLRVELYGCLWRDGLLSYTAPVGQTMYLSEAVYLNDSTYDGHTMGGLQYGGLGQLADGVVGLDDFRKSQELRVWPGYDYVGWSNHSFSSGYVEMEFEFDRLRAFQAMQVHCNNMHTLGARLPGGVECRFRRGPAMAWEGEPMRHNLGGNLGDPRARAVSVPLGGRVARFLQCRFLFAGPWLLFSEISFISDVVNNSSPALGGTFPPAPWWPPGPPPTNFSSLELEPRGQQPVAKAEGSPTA
Description: Biacore, DDR1 extracellular domain. On the procedure:
as §1

Test [5] concerns the target T1, Human DDR1 extracellular domain. Briefly: Biacore, DDR1 extracellular domain; KD in mass units (ng/mL), same fit as the 1.36 nM of r7c2. As to the method:
as §1

Several values for one entry are separate records, joined by “and”; a condition that tells them apart may be missing. Equal entries are not always repeated.

B1: 9H-1 (humanized DDR1-9, WT IgG1 Fc) (antibody, V domains shown)
VH: QVQLVESGGRVVQPGRSLRLSCTASGFSLNRYYMLWVRQAPGKGLEWIGTISYGDTTYYASWAKGRFTISRDNSKNTLYLQMNSLRAEDTAVYYCARADTGDNGYLGLQLWGQGTLVTVSS
VL: DIQMTQSPSSVSASVGDRVTITCQASQSIGSVLAWYQQKPGKAPKLLISGVFDLASGVPSRFSGSGSGTDFTLTISSLQPEDFATYYCQYIPYGSSPFGGGTKVEIKR
notes: In some embodiments the heavy chain lacks the terminal lysine; also called PRTH-101; humanized DDR1-9 (9H-1)_1 WT IgG1 Fc
For orientation: Kd means a measure of binding affinity in units of concentration. As a reminder, the koff is a measure of how fast the partners let go of each other. In general, kon refers to the second-order rate constant of association. Consider B1, for which the Kd in test [1] was 1.36 nM; in test [2] it was 16.9 nM and 2.54 µg/mL; in test [3], 2.28 nM and 0.342 µg/mL; in test [4] it was 1.3 nM and 0.195 µg/mL; in test [5], 0.204 µg/mL. The koff in test [1] stood at 0.000181 s⁻¹; in test [2] it was 0.00397 s⁻¹; in test [3], 0.000455 s⁻¹; in test [4], 0.00015 s⁻¹. The kon was 133000 M⁻¹ s⁻¹ in test [1], 235000 M⁻¹ s⁻¹ in test [2], 199000 M⁻¹ s⁻¹ in test [3] and 116000 M⁻¹ s⁻¹ in test [4]. Further, the t1/2 is 64 min in test [1], 2.9 min in test [2], 25.3 min in test [3] and 77 min in test [4].
